A short description of this series: label from the status in PepcDB records.

Turning to “MENKRAIIAVVLSFIVLVGWGYLSEYMGWTPKSVPATEQKTAASAPAPSVVTSAPEAVTPAPAFSPSTGHEVTVTTPLYKAVLHSGGGVLRQFMLSRYHMGIDRDAAPVNLIESSAIRVAPLGLLVNGQPSWNTGQWAFEGGDLNLADGQTGTLRFVGSVDGLRVVRELEFHADSYLVTEKLHLAPEGDAPRTARVGFTLGTTSLTPGESQYNLTRVAWFADGSFSEKSSTGDLEKGVLIDGSIDWAGVMSNYFLAAVAPKDTRAVLKGKLEGGVYRVAVERPDQMVNPGNSDVIVCNYWFGPKERDLLNAAPNNLGKAIDLGWFGFIARPLVTLLDFFYKYVGNYGTAIILLTILIKLVFWPLSHKSYKSMEQMKKLQPMLAKVREKHADDREKMNEEMMRLYKTYKVNPAGGCLPMLVQIPVFFGLYQALLNAIELRHAPFIAHVPFTDIVWLADLSAKDPFYVTPLVMGATMFLQQKLTPPAGDPTQAKVMMFMPVVFTFLFLNFPSGLVVYWLCNNVLSIAQQWWILRKA”, the protein production entry is “failed”.

Regarding “MENLASPPDISFVIAAYNAADTIEAAVQSALDQRGVTLEVIVVDDRSADDTITFVEAIAAIDPRVRLLALEENRGPGGARNAGIEAATGRWIAVLDSDDVIRPERSACMMCRAEAANAAVAVDNLDVVYTDGRPMETMFPEEFLEERAVLTLEDFISSNILFRSTFNFGYMKPMFRRDFLNNEGLRFREDIRIGEDYILLASALAAGGLCVIEPKPGYIYNIREGSISRVLELHHVEAMMRADQEFLSHYTLLPAAMDAQQARARSLQLAHNFLTLVENIKRRSVLGALKTTIRDPAVLGHLRMPIAVRLRRLRDAMFAPAAKIQGLEHHHHHH”, the protein production entry is reported as “not failed”.

Regarding “MENLGDRLEVVAELSLAPGNITLTPDGRLFLSLHQFYQPEMQVAELTQDGLIPFPPQSGNAIITFDTVLGIKSDGNGIVWMLDNGNQSKSVPKLVAWDTLNNQLSRVIYLPPPITLSNSFVNDLAVDLIHNFVYISDPAPDDKAALIRVDLQTGLAARVLQGYPGIAPEDIDLVIDGVPVQIGQPDGTVIRPHLGVNGIVLDAENEWLYLSPMHSTSMYRIKSADLSNLQLTDAELGSKIERYSEKPICDGISIDKDHNIYVGDLAHSAIGVITSADRAYKLLVTDEKLSWTDSFNFGSDGYLYFDCNQLHHSAPLNAGENISAPPYYIFRLKPLAAGIVGR”, the protein production entry was “not failed”. Take “MENLYKELGDQSLHKDFCQTVASTFSCSVNRNGKSSITWKQVQIWFQEKLKHQSQPKSKTLPSPPLQIHDLSNPSSYASNASNATFVGNSTFVQTRKGKASDLADLAFEAKSARDYAWYDVSSFLTYRVLRTGELEVRVRFSGFDNRHDEWVNVKTSVRERSIPVEPSECGRVNVGDLLLCFQEREDQALYCDGHVLNIKRGIHDHARCNCVFLVRYELDNTEESLGLERICRRPEE”: the protein production result was “failed”.

For “MENRIELYDSKARYGVISRGLHWAMALAFAWIYSTTSAHYLLADSALDKFLWPTHKQVGLLLMALLLVRVLWSLLNRHRRPPSLNLAATLGHGLLYAGMFAIPFLGLLRQYGSGRAFSAFGLPVMNGFDGPKIQWMTELGNNFHSLLGWTLLVLIVGHVAALILHCIKGQGHILRRMAGSARSA”, the protein production entry is on record as “failed”. The same measure for “MENSDDIRLIVKIAQLYYEQDMTQAQIARELGIYRTTISRLLKRGRDQGMVTIAINYDYNENLWLEQQLKQKFGLKDVVVVSGNDEDEETQLAMMGLHGAQLLDRLLEPGDIVGFSWGRAVSALVENLPQAGQSRQLICVPIIGGPSGKLESRYHVNTLTYSAAAKLKGESHLADFPALLDNPLIRNGIMQSQHFKTISAYWDNLDIALVGIGSPAIRDGANWHAFYGGEESDDLNARQVAGDICSRFFDIHGAMVETNMSEKTLSIEMNKLKQARYSIGIAMSEEKYSGIIGALRGKYINCLVTNSSTAELLLK”: “not failed”. Regarding “MENTLSFKKQGYWLFSSAIIIGVLFLLLPHIISNIGVLEFIGAFFNALCMGVIAFIILKAEFLDWFKHFSFKWIIIGAPALIIISSIFNIAWAYFAGSTTENGINSVLTWTYVFTSIPFMLLGEELLSISLLYAAWKKWNWKFWQASLLCSLLFATWHLTSYDFNFLQCIITLAPARLILNYLFKKTNSVWVTFIVHFIFDFIAFLPILLK”, the protein production entry is “failed”.

With “MENYHRLYELSPLITGWTICVMILRIYKKMLNDHSFELHLILQDEAGKRIEVTIGTRFSAFYYDRLIENQWKMISTFLGTVLLNNFTPFDYILEHSVRKDTLVDLLGALIDFDWLTNSAPNGSDMDGFKLQFRFIDSKFTIYSQDILQCEAHGEYAVDLEKKFRSVRNNKVVIALAFWKIVTYFDGGHRMKIASHAPISTVYPDPDIEPVKEIKMVCIY”, the protein production result was “failed”. For “MEPCSSDEFFQALNHAEQTFKKMENYLRHKQLCDVILVAGDRRIPAHRLVLSSVSDYFAAMFTNDVREARQEEIKMEGVEPNSLWSLIQYAYTGRLELKEDNIECLLSTACLLQLSQVVEACCKFLMKQLHPSNCLGIRSFADAQGCTDLHKVAHNYTMEHFMEVIRNQEFVLLPANEIAKLLASDDMNIPNEETILNALLTWVRHDLEQRRKDLSRLLAYIRLPLLAPQAPGLELSSPDLHSKDLAHSAISSTPK”, the protein production result is recorded as “failed”.

“MEPGLRLLIQLVLEFAPVFVNILHKRSEESLTTARYQVPNLIQGFIETINNINDIDNSNKSLEQEKLWQQQLVAYQRETQAQIANQQRDTALKLPEVNKILDSWPLRLYPSQILESHHSYERKPLKVFIAPPKIHFDKFDNHVETYSEIELMLAEGLREFINENYSLHSPTRPIEFLAGAWDSKRFHSESSIKALFGMLKTEPILILESENDGDYLNFRIAYWGLTQGTYYYKTISRLPYKEIIQNSAKNRALEWKKVRDELLEIGVDVEEINEFGKDNVFNLAILEKAEKWQAQGIDISKLSLQYRVSQQDIEQLCQVLITCHCLVAAWVADIYHLGNHDIPPLLPELLPSLLKNAIDVQSLQAIASSYKQVYEALEKERLYWIPELSMQLAQSLSHLPDTSWAQAEVDYSINTWLELRQVSLQQFTSPLEAMQSVVKIEDEEYIQKLREYFTVIGDRHNLQFVEKLLEAIATLKYKRSLEYPYLTKTITGHSGKVKSVAISPDGEVIVSGCTDQTVNIWNLQTGKLIRTLTGNLGEVSSVAISPDGNFLAVGSGVHPRSNVKVWHLKTGKLLHTLLGHQKPVNVVVISPDGQILASGSNKIKIWNLQKGDGVPPTVGDRICTLWHSSAVHAIAISPDSTILASGSSDNKIRLWNPRTGDPLRTLNSHDNEVKAIAISRDGQFLFSGSADTTIKIWHLITGQILHTLTGHSGDIKSLTTSPNGQFLFSGSADTTIKIWRISTGELLHTLTGHSASVNSVAISPGGNLLASGSADQTIKIWQIDKI”: the protein production entry was “failed”. “MEPIMRNPEDALLDSWHQNAQAWIDAVRHGAIESRRQVTDQAILLAILGRQPERVLDLGCGEGWLLRALADRGIEAVGVDGDRTLVDAARAAGAGEVHLASYAQLAEAKVPVGKDYDLICANFALLHQDIIELLSAMRTLLVPGGALVIQTLHPWSVADGDYQDGWREESFAGFAGDWQPMPWYFRTLASWLNALDMAGLRLVSLQEPQHPQSAVPQSLLMVAERH”: the protein production result was “failed”. As to “MEPKPFFLCIIFLLFCSSSSEILQKQTYIVQLHPNSETAKTFASKFDWHLSFLQEAVLGVEEEEEEPSSRLLYSYGSAIEGFAAQLTESEAEILRYSPEVVAVRPDHVLQVQTTYSYKFLGLDGFGNSGVWSKSRFGQGTIIGVLDTGVWPESPSFDDTGMPSIPRKWKGICQEGESFSSSSCNRKLIGARFFIRGHRVANSPEESPNMPREYISARDSTGHGTHTASTVGGSSVSMANVLGNGAGVARGMAPGAHIAVYKVCWFNGCYSSDILAAIDVAIQDKVDVLSLSLGGFPIPLYDDTIAIGTFRAMERGISVICAAGNNGPIESSVANTAPWVSTIGAGTLDRRFPAVVRLANGKLLYGESLYPGKGIKNAGREVEVIYVTGGDKGSEFCLRGSLPREEIRGKMVICDRGVNGRSEKGEAVKEAGGVAMILANTEINQEEDSIDVHLLPATLIGYTESVLLKAYVNATVKPKARIIFGGTVIGRSRAPEVAQFSARGPSLANPSILKPDMIAPGVNIIAAWPQNLGPTGLPYDSRRVNFTVMSGTSMSCPHVSGITALIRSAYPNWSPAAIKSALMTTADLYDRQGKAIKDGNKPAGVFAIGAGHVNPQKAINPGLVYNIQPVDYITYLCTLGFTRSDILAITHKNVSCNGILRKNPGFSLNYPSIAVIFKRGKTTEMITRRVTNVGSPNSIYSVNVKAPEGIKVIVNPKRLVFKHVDQTLSYRVWFVLKKKNRGGKVASFAQGQLTWVNSHNLMQRVRSPISVTLKTN”, the protein production result is recorded as “failed”.

For the sequence “MEPNIKVQSEDLRYIVQVVTSKIKVYDIIVDPVSVKFYFFDSDNEGIDASFDYIRRELVDKGFIPFLSRDGENFIQVTRRPKQRYFGNIVNVVLLVATILSTMYVGSQYSINFVPRGSFYELRLWAYGFLFFSAPLLLILGIHESAHFLVAKRHHVKASLPFFIPFPVGIGTFGAFISLRDPLPNRKAMTEIGAAGPIAGFLTALPLLFVADYFQGVIKPIPPYYIPFKVTFPLIYQLLGLHTNFTGPIFPMVFAVWVGMFATAMNLIPAGQLDGSHILRGVLGNRANVLSYVFLAFLFGIGFFYTGWWIIAIFVVFTGLVHPPALNDFSKISKLDIVLGIVSLAMFILTFTIVPIKPA”, the protein production entry is on record as “failed”. Take “MEPNRFGDILAFVSAVKAGSFTSAAATLGVTRSAVGKSVARLEARLGVRLLHRTTRKLNVTGEGLVVFERWSQILEDLEEVDATMAQRRGKPAGILRLTAPLSFGQRHILPILNAYVTNWPEIQADVWFTDHYVDLIEEGIDVAVRIGGVKDDARILSRTIGGQQFVTCAAPGYLAKKGVPSTPADLAGHDTIFFLSGQRPMPWRLGQGDAIEVCDGPGRMNIDSSEALREAALSGFGLIHLPTYITGKDLQRGDLVEVLEAYRPPADPIRLIYPSKRHLSPRTRAFIDLLIERWRDGVPWERLEPAS”: the protein production entry is on record as “failed”.

“MEQHQVWAYQTKTHSVTLNSVDIPALAADDILVQNQAIGINPVDWKFIKANPINWSNGHVPGVDGAGVIVKVGAKVDSKMLGRRVAYHTSLKRHGSFAEFTVLNTDRVMTLPDNLSFERAAALPCPLLTAWQAFEKIPLTKQREVLIVGFGAVNNLLTQMLNNAGYVVDLVSASLSQALAAKRGVRHLYREPSQVTQKYFAIFDAVNSQNAAALVPSLKANGHIICIQDRIPAPIDPAFTRTISYHEIALGALHDFGDRQDWQILMQQGEALLTLIAQGKMEIAAPDIFRFEQMIEALDHSEQTKLKTVLTLNE”: the protein production result was “not failed”. For the sequence “MEQIILDIIEFLKQFSYFGVVLALTFEFIPAEVVLPMVGYWVYEGDMNFWLAVLAGTLGGTTGPLTLYALGYYGGRPLLIKYGKYFFIKEEQIQKADDFFEKYGPVVAFVGRFVPGVRTLISVPCGKAKMNIWKFSIYTFVAMFPLTTLYVYCEMKLGPHWEKAADVVGQYMLPILVVVVIIVGGILIYKFMKKRNRSESI”, the protein production entry was “failed”. Turning to “MEQKILSSEPRRSFSNEFKLQMVKLASQPGAXVARIAREHDINDNLLFKWLRLWQNERRISRRLPVTTSSGAGVELLPVEITPDEQKEPMAALTPLLSTPSQSTVSASSCKVEFRHGNMTLENPSPELLTVLIRELTGRGR”, the protein production entry was “failed”.

Turning to “MEQLDAIRRLNVAIFDDAHIIETFERDDLLMLLARSGGTDVGFKLGYRLNEAAFYSAKGGVHPAHRRNGIARALLYDMLDVVAGRGYERFVYDTFPNKHPGMTVLGLDEGFEVIRAGYSAKYQDYRLRFAWTFDAA”, the protein production entry was “failed”.

The record behind these values is a protein production outcome set (Wang et al. 2014).
